Drawing on patent US20220340642A1 (Kyowa Kirin, published 2022), this text covers binding result and Kd for six molecules.

Assay [1] has as its target T1, membrane-bound human TL1A (Met and FLAG tag at the N-terminus) on CHO-K1 cells (human, UniProt O95150 2-251).
T1 construct: also called TL1A/CHO
T1 sequence: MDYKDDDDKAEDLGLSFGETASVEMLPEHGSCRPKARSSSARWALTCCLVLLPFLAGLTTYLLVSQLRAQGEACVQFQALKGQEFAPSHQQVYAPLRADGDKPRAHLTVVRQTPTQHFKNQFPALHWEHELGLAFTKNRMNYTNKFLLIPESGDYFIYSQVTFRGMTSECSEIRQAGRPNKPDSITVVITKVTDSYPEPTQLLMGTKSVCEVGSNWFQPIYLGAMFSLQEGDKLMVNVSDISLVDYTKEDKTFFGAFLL
Description: flow cytometry on expressing cells. The method, boiled down: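 Binding was measured by flow cytometry on HEK293 cells forced to express membrane-bound LIGHT and on cell lines expressing N-terminally Met/FLAG-tagged TL1A or FasL from a CMV-promoter pClpuro vector. Cells at 1×10⁵ cells/well received 1 or 10 μg/mL protein on ice for 1 hour. After washing, cells were stained on ice for 1 hour with LIVE/DEAD Fixable Aqua and R-phycoerythrin goat F(ab′)₂ anti-human IgG (10 ng/mL, 0.1 or 1 μg/mL). Fluorescence was read on a FACS Fortessa.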
For orientation: Flow cytometry measures light scatter and fluorescence of single cells or particles in a stream.

The target of assay [2] is T2, soluble recombinant of human TL1A (His6, GS linker, Leu72-Leu251) (UniProt O95150 72-251).
T2 chain: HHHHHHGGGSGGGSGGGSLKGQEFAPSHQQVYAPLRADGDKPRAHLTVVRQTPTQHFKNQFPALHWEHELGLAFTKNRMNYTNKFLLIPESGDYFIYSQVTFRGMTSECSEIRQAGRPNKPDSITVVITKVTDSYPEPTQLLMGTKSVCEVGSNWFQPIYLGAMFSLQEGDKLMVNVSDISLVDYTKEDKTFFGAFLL
The experiment in a line: BIAcore SPR. The method, boiled down: (§1)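 Dissociation constants (Kd, nM) come from surface plasmon resonance measurements on a BIAcore T-100 or T-200 instrument (GE Healthcare) in HBS-EP+ Buffer. Each test molecule was analysed for binding to soluble recombinant His-tagged human or cynomolgus monkey LIGHT, TL1A or FasL.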
A general note: Surface plasmon resonance follows binding to a sensor surface in real time, without labels.

For assay [3], the target named is T3, soluble recombinant of human LIGHT (His10, GS linker, Asp74-Val240).
T3 chain: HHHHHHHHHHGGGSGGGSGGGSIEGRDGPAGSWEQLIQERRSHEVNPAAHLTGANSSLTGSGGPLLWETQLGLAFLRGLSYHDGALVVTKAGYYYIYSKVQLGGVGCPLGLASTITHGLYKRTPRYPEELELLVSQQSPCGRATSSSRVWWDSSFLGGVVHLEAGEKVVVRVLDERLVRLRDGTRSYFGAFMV
Description: BIAcore SPR. In a few lines:
as §1

The target of assay [4] is T4, soluble recombinant of human FasL (His6, Pro134-Leu281) (UniProt P48023 134-281).
T4 chain: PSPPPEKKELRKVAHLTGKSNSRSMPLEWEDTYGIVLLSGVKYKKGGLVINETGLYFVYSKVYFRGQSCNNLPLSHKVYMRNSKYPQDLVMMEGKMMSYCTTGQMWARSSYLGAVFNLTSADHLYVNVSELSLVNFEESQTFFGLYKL
The experiment in a line: BIAcore SPR. The method, boiled down: as §1

For orientation: Kd means the constant that tells how readily two partners part at equilibrium.

B1: chimera A-E57K_R58D-Fc (Eg1S LALAGANA) (Fc fusion)
chain: ETFPPKYLHYDEETSHQLLCDKCPPGTYLKQHCTAKWKTVCAPCPPRHYTQFWNYLKDCRYCNVLCGEREEEARACHATHNRACRCRTGFFAHAGFCLEHASCPPGAGVIAPGTPSQNTQCQPCPDGFFSNETSSKAPCRKHTNCSVFGLLLTQKGNATHDNICSGNSESTQKEPKSSDKTHTCPPCPAPEAAGAPSVFLFPPKPKDTLMISRTPEVTCVVVDVSHEDPEVKFNWYVDGVEVHNAKTKPREEQYNSTYRVVSVLTVLHQDWLNGKEYKCKVSNKALPAPIEKTISKAKGQPREPQVYTLPPSRDELTKNQVSLTCLVKGFYPSDIAVEWESNGQPENNYKTTPPVLDSDGSFFLYSKLTVDKSRWQQGNVFSCSVMHEALHAHYTQKSLSLSPGK
As for B1, in assay [1], the binding result is recorded as “binds”. Moreover, the values for the Kd in assay [2], in assay [3] and in assay [4] were 0.2 nM, 0.3 nM and 4.6 nM, respectively.

B2: chimera A-E57R-Fc (Eg1S LALAGANA) (Fc fusion)
chain: ETFPPKYLHYDEETSHQLLCDKCPPGTYLKQHCTAKWKTVCAPCPPRHYTQFWNYLRRCRYCNVLCGEREEEARACHATHNRACRCRTGFFAHAGFCLEHASCPPGAGVIAPGTPSQNTQCQPCPDGFFSNETSSKAPCRKHTNCSVFGLLLTQKGNATHDNICSGNSESTQKEPKSSDKTHTCPPCPAPEAAGAPSVFLFPPKPKDTLMISRTPEVTCVVVDVSHEDPEVKFNWYVDGVEVHNAKTKPREEQYNSTYRVVSVLTVLHQDWLNGKEYKCKVSNKALPAPIEKTISKAKGQPREPQVYTLPPSRDELTKNQVSLTCLVKGFYPSDIAVEWESNGQPENNYKTTPPVLDSDGSFFLYSKLTVDKSRWQQGNVFSCSVMHEALHAHYTQKSLSLSPGK
As to B2, in assay [1], the binding result was “binds”. The dissociation constant Kd in assay [2] was found to be 0.31 nM; in assay [3], 0.38 nM; in assay [4] it was 4.6 nM.

B3: chimera A-E57V-Fc (Eg1S LALAGANA) (Fc fusion)
chain: ETFPPKYLHYDEETSHQLLCDKCPPGTYLKQHCTAKWKTVCAPCPPRHYTQFWNYLVRCRYCNVLCGEREEEARACHATHNRACRCRTGFFAHAGFCLEHASCPPGAGVIAPGTPSQNTQCQPCPDGFFSNETSSKAPCRKHTNCSVFGLLLTQKGNATHDNICSGNSESTQKEPKSSDKTHTCPPCPAPEAAGAPSVFLFPPKPKDTLMISRTPEVTCVVVDVSHEDPEVKFNWYVDGVEVHNAKTKPREEQYNSTYRVVSVLTVLHQDWLNGKEYKCKVSNKALPAPIEKTISKAKGQPREPQVYTLPPSRDELTKNQVSLTCLVKGFYPSDIAVEWESNGQPENNYKTTPPVLDSDGSFFLYSKLTVDKSRWQQGNVFSCSVMHEALHAHYTQKSLSLSPGK
As to B3, the binding result in assay [1] is “binds”. The Kd in assay [2] was 0.23 nM; in assay [3] it was 0.33 nM; in assay [4], 5.2 nM.

B4: chimera A-E57R-Fc (Eg1S YTE) (Fc fusion)
chain: ETFPPKYLHYDEETSHQLLCDKCPPGTYLKQHCTAKWKTVCAPCPPRHYTQFWNYLRRCRYCNVLCGEREEEARACHATHNRACRCRTGFFAHAGFCLEHASCPPGAGVIAPGTPSQNTQCQPCPDGFFSNETSSKAPCRKHTNCSVFGLLLTQKGNATHDNICSGNSESTQKEPKSSDKTHTCPPCPAPELLGGPSVFLFPPKPKDTLYITREPEVTCVVVDVSHEDPEVKFNWYVDGVEVHNAKTKPREEQYNSTYRVVSVLTVLHQDWLNGKEYKCKVSNKALPAPIEKTISKAKGQPREPQVYTLPPSRDELTKNQVSLTCLVKGFYPSDIAVEWESNGQPENNYKTTPPVLDSDGSFFLYSKLTVDKSRWQQGNVFSCSVMHEALHNHYTQKSLSLSPGK
For B4, in assay [1], the binding result is reported as “binds”. The equilibrium dissociation constant (Kd) worked out at 0.33 nM in assay [2], 0.39 nM in assay [3] and 5.1 nM in assay [4].

B5: chimera A-E57V-Fc (Eg1S YTE) (Fc fusion)
chain: ETFPPKYLHYDEETSHQLLCDKCPPGTYLKQHCTAKWKTVCAPCPPRHYTQFWNYLVRCRYCNVLCGEREEEARACHATHNRACRCRTGFFAHAGFCLEHASCPPGAGVIAPGTPSQNTQCQPCPDGFFSNETSSKAPCRKHTNCSVFGLLLTQKGNATHDNICSGNSESTQKEPKSSDKTHTCPPCPAPELLGGPSVFLFPPKPKDTLYITREPEVTCVVVDVSHEDPEVKFNWYVDGVEVHNAKTKPREEQYNSTYRVVSVLTVLHQDWLNGKEYKCKVSNKALPAPIEKTISKAKGQPREPQVYTLPPSRDELTKNQVSLTCLVKGFYPSDIAVEWESNGQPENNYKTTPPVLDSDGSFFLYSKLTVDKSRWQQGNVFSCSVMHEALHNHYTQKSLSLSPGK
On to B5, for which the binding result in assay [1] is listed as “binds”. Further, the Kd in assay [2] stood at 0.24 nM; in assay [3] it was 0.35 nM; in assay [4], 5.3 nM.

B6: chimera A-E57K_R58D-Fc (Eg1S YTE) (Fc fusion)
chain: ETFPPKYLHYDEETSHQLLCDKCPPGTYLKQHCTAKWKTVCAPCPPRHYTQFWNYLKDCRYCNVLCGEREEEARACHATHNRACRCRTGFFAHAGFCLEHASCPPGAGVIAPGTPSQNTQCQPCPDGFFSNETSSKAPCRKHTNCSVFGLLLTQKGNATHDNICSGNSESTQKEPKSSDKTHTCPPCPAPELLGGPSVFLFPPKPKDTLYITREPEVTCVVVDVSHEDPEVKFNWYVDGVEVHNAKTKPREEQYNSTYRVVSVLTVLHQDWLNGKEYKCKVSNKALPAPIEKTISKAKGQPREPQVYTLPPSRDELTKNQVSLTCLVKGFYPSDIAVEWESNGQPENNYKTTPPVLDSDGSFFLYSKLTVDKSRWQQGNVFSCSVMHEALHNHYTQKSLSLSPGK
notes: also called 45-10-Fc (Eg1S YTE)
Take B6: the binding result in assay [1] is reported as “binds”. Also, the Kd was 0.25 nM in assay [2], 0.4 nM in assay [3] and 5.7 nM in assay [4].
